# Results as given in the supplement of paper PMC5998384.
# Legend:
# HeLa Kyoto [1] = experiment: solubility in G1/S (NP-40 vs SDS abundance) (log2 ratio); higher = more soluble; details: cell cycle stage: G1/S
# HeLa Kyoto [2] = experiment: solubility change mitosis vs G1/S (difference of NP-40 vs SDS log2 ratios) (log2 ratio difference); higher = more soluble in mitosis
# HeLa Kyoto [3] = experiment: thermal stability score vs G1/S (z-score of summed log2 fold changes over temperatures); higher = more thermally stable than in G1/S
# [4] = cell cycle stage: early G1 (4.5 h after nocodazole release)
# 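Wherever solubility change mitosis vs G1/S (difference of NP-40 vs SDS log2 ratios) is given: synchronized HeLa Kyoto cells (double thymidine block for G1/S, nocodazole release for mitosis), protein amounts in NP-40 versus SDS lysates quantified by mass spectrometry, three biological replicates.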
# 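Wherever solubility in G1/S (NP-40 vs SDS abundance) is given: HeLa Kyoto cells arrested at G1/S by double thymidine block, proteins quantified by TMT10plex mass spectrometry in mild NP-40 versus SDS extracts, three biological replicates.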
# 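Wherever thermal stability score vs G1/S (z-score of summed log2 fold changes over temperatures) is given: synchronized HeLa Kyoto cells, proteins quantified by TMT10plex mass spectrometry, three biological replicates, mitosis taken 0.5 h after nocodazole release, G1/S directly after double thymidine block.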
# Chain of DENND4A (chain, as listed by the source): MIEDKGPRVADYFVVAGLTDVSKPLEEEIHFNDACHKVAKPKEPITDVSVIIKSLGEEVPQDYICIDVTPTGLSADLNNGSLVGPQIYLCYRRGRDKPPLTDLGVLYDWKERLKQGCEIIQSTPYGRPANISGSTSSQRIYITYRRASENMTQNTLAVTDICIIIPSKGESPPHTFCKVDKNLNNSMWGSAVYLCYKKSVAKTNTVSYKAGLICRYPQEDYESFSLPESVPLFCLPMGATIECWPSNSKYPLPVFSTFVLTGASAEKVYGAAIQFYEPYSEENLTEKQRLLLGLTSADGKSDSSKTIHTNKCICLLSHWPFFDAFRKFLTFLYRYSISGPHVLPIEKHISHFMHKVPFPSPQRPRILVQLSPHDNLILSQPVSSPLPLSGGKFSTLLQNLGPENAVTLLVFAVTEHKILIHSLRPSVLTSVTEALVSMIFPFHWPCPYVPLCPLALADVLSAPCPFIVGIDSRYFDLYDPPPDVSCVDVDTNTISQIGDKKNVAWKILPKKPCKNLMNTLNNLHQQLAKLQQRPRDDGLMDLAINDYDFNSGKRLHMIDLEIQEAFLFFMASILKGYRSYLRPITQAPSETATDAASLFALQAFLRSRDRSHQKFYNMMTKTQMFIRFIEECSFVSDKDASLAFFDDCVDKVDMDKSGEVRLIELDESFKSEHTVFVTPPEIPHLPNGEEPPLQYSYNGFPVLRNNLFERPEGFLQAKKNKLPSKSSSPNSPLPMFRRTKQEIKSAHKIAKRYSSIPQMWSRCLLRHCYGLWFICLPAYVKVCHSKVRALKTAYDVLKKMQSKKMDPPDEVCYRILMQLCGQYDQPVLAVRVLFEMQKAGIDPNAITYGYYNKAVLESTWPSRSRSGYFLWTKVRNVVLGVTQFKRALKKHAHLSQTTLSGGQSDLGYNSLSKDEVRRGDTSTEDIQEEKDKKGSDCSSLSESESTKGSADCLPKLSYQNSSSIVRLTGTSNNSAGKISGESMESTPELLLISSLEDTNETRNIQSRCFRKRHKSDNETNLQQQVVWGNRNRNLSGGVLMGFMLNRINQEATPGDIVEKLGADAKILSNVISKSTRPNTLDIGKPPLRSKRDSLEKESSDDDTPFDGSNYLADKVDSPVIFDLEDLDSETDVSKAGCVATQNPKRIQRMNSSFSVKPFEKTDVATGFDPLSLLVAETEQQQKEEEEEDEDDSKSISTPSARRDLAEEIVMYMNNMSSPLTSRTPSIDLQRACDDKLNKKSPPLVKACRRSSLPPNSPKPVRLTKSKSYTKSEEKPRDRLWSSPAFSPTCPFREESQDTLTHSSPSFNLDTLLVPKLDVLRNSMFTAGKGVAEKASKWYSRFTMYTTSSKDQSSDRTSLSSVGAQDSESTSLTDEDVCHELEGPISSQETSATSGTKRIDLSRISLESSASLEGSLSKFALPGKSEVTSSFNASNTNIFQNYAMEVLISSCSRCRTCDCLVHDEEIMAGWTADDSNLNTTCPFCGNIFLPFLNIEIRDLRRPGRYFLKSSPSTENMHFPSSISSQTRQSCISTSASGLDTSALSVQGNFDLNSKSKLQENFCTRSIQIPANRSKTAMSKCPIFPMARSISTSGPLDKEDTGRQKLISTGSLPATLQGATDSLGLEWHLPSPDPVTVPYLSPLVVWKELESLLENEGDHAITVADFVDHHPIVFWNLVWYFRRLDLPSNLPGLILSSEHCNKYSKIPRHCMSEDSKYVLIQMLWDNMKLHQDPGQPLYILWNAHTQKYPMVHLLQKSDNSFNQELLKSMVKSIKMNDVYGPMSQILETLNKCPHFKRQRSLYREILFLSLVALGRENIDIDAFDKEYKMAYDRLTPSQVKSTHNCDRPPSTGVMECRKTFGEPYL
Substance,solubility in G1/S (log2) (HeLa Kyoto [1]),solubility change mitosis (log2) (HeLa Kyoto [2]),thermal stability score (HeLa Kyoto [3]; [4]),thermal stability score (HeLa Kyoto [3]; cell cycle stage: mitosis)
MAASGVEKSSKKKTEKKLAAREEAKLLAGFMGVMNNMRKQKTLCDVILMVQERKIPAHRVVLAAASHFFNLMFTTNMLESKSFEVELKDAEPDIIEQLVEFAYTARISVNSNNVQSLLDAANQYQIEPVKKMCVDFLKEQVDASNCLGISVLAECLDCPELKATADDFIHQHFTEVYKTDEFLQLDVKRVTHLLNQDTLTVRAEDQVYDAAVRWLKYDEPNRQPFMVDILAKVRFPLISKNFLSKTVQAEPLIQDNPECLKMVISGMRYHLLSPEDREELVDGTRPRRKKHDYRIALFGGSQPQSCRYFNPKDYSWTDIRCPFEKRRDAACVFWDNVVYILGGSQLFPIKRMDCYNVVKDSWYSKLGPPTPRDSLAACAAEGKIYTSGGSEVGNSALYLFECYDTRTESWHTKPSMLTQRCSHGMVEANGLIYVCGGSLGNNVSGRVLNSCEVYDPATETWTELCPMIEARKNHGLVFVKDKIFAVGGQNGLGGLDNVEYYDIKLNEWKMVSPMPWKGVTVKCAAVGSIVYVLAGFQGVGRLGHILEYNTETDKWVANSKVRAFPVTSCLICVVDTCGANEETLET [KLHL7],-0.622,0.322,0.201,-0.116
MSSACDAGDHYPLHLLVWKNDYRQLEKELQGQNVEAVDPRGRTLLHLAVSLGHLESARVLLRHKADVTKENRQGWTVLHEAVSTGDPEMVYTVLQHRDYHNTSMALEGVPELLQKILEAPDFYVQMKWEFTSWVPLVSRICPNDVCRIWKSGAKLRVDITLLGFENMSWIRGRRSFIFKGEDNWAELMEVNHDDKVVTTERFDLSQEMERLTLDLMKPKSREVERRLTSPVINTSLDTKNIAFERTKSGFWGWRTDKAEVVNGYEAKVYTVNNVNVITKIRTEHLTEEEKKRYKADRNPLESLLGTVEHQFGAQGDLTTECATANNPTAITPDEYFNEEFDLKDRDIGRPKELTIRTQKFKAMLWMCEEFPLSLVEQVIPIIDLMARTSAHFARLRDFIKLEFPPGFPVKIEIPLFHVLNARITFGNVNGCSTAEESVSQNVEGTQADSASHITNFEVDQSVFEIPESYYVQDNGRNVHLQDEDYEIMQFAIQQSLLESSRSQELSGPASNGGISQTNTYDAQYERAIQESLLTSTEGLCPSALSETSRFDNDLQLAMELSAKELEEWELRLQEEEAELQQVLQLSLTDK [ANKRD13A],-0.139,-0.0203,0.86,0.416
MDGLQASAGPLRRGRPKRRRKPQPHSGSVLALPLRSRKIRKQLRSVVSRMAALRTQTLPSENSEESRVESTADDLGDALPGGAAVAAVPDAARREPYGHLGPAELLEASPAARSLQTPSARLVPASAPPARLVEVPAAPVRVVETSALLCTAQHLAAVQSSGAPATASGPQVDNTGGEPAWDSPLRRVLAELNRIPSSRRRAARLFEWLIAPMPPDHFYRRLWEREAVLVRRQDHTYYQGLFSTADLDSMLRNEEVQFGQHLDAARYINGRRETLNPPGRALPAAAWSLYQAGCSLRLLCPQAFSTTVWQFLAVLQEQFGSMAGSNVYLTPPNSQGFAPHYDDIEAFVLQLEGRKLWRVYRPRVPTEELALTSSPNFSQDDLGEPVLQTVLEPGDLLYFPRGFIHQAECQDGVHSLHLTLSTYQRNTWGDFLEAILPLAVQAAMEENVEFRRGLPRDFMDYMGAQHSDSKDPRRTAFMEKVRVLVARLGHFAPVDAVADQRAKDFIHDSLPPVLTDRERALSVYGLPIRWEAGEPVNVGAQLTTETEVHMLQDGIARLVGEGGHLFLYYTVENSRVYHLEEPKCLEIYPQQADAMELLLGSYPEFVRVGDLPCDSVEDQLSLATTLYDKGLLLTKMPLALN [NO66],-0.879,0.755,-0.151,0.066
MAGAENWPGQQLELDEDEASCCRWGAQHAGARELAALYSPGKRLQEWCSVILCFSLIAHNLVHLLLLARWEDTPLVILGVVAGALIADFLSGLVHWGADTWGSVELPIVGKAFIRPFREHHIDPTAITRHDFIETNGDNCLVTLLPLLNMAYKFRTHSPEALEQLYPWECFVFCLIIFGTFTNQIHKWSHTYFGLPRWVTLLQDWHVILPRKHHRIHHVSPHETYFCITTGWLNYPLEKIGFWRRLEDLIQGLTGEKPRADDMKWAQKIK [TMEM189],-0.215,0.0319,-3.23,-3.53
MAASKTQGAVARMQEDRDGSCSTVGGVGYGDSKDCILEPLSLPESPGGTTTLEGSPSVPCIFCEEHFPVAEQDKLLKHMIIEHKIVIADVKLVADFQRYILYWRKRFTEQPITDFCSVIRINSTAPFEEQENYFLLCDVLPEDRILREELQKQRLREILEQQQQERNDTNFHGVCMFCNEEFLGNRSVILNHMAREHAFNIGLPDNIVNCNEFLCTLQKKLDNLQCLYCEKTFRDKNTLKDHMRKKQHRKINPKNREYDRFYVINYLELGKSWEEVQLEDDRELLDHQEDDWSDWEEHPASAVCLFCEKQAETIEKLYVHMEDAHEFDLLKIKSELGLNFYQQVKLVNFIRRQVHQCRCYGCHVKFKSKADLRTHMEETKHTSLLPDRKTWDQLEYYFPTYENDTLLCTLSDSESDLTAQEQNENVPIISEDTSKLYALKQSSILNQLLL [ZNF277],-0.685,0.173,0.293,1.38
NHS,-0.153,-0.00515,0.656,0.325
MKDYDELLKYYELHETIGTGGFAKVKLACHILTGEMVAIKIMDKNTLGSDLPRIKTEIEALKNLRHQHICQLYHVLETANKIFMVLEYCPGGELFDYIISQDRLSEEETRVVFRQIVSAVAYVHSQGYAHRDLKPENLLFDEYHKLKLIDFGLCAKPKGNKDYHLQTCCGSLAYAAPELIQGKSYLGSEADVWSMGILLYVLMCGFLPFDDDNVMALYKKIMRGKYDVPKWLSPSSILLLQQMLQVDPKKRISMKNLLNHPWIMQDYNYPVEWQSKNPFIHLDDDCVTELSVHHRNNRQTMEDLISLWQYDHLTATYLLLLAKKARGKPVRLRLSSFSCGQASATPFTDIKSNNWSLEDVTASDKNYVAGLIDYDWCEDDLSTGAATPRTSQFTKYWTESNGVESKSLTPALCRTPANKLKNKENVYTPKSAVKNEEYFMFPEPKTPVNKNQHKREILTTPNRYTTPSKARNQCLKETPIKIPVNSTGTDKLMTGVISPERRCRSVELDLNQAHMEETPKRKGAKVFGSLERGLDKVITVLTRSKRKGSARDGPRRLKLHYNVTTTRLVNPDQLLNEIMSILPKKHVDFVQKGYTLKCQTQSDFGKVTMQFELEVCQLQKPDVVGIRRQRLKGDAWVYKRLVEDILSSCKV [MELK],-0.42,0.0602,-0.242,0.0849
MFHCIPLWRCNRHVESIDKRHCSLVYVPEEIYRYARSLEELLLDANQLRELPEQFFQLVKLRKLGLSDNEIQRLPPEIANFMQLVELDVSRNEIPEIPESISFCKALQVADFSGNPLTRLPESFPELQNLTCLSVNDISLQSLPENIGNLYNLASLELRENLLTYLPDSLTQLRRLEELDLGNNEIYNLPESIGALLHLKDLWLDGNQLSELPQEIGNLKNLLCLDVSENRLERLPEEISGLTSLTDLVISQNLLETIPDGIGKLKKLSILKVDQNRLTQLPEAVGECESLTELVLTENQLLTLPKSIGKLKKLSNLNADRNKLVSLPKEIGGCCSLTVFCVRDNRLTRIPAEVSQATELHVLDVAGNRLLHLPLSLTALKLKALWLSDNQSQPLLTFQTDTDYTTGEKILTCVLLPQLPSEPTCQENLPRCGALENLVNDVSDEAWNERAVNRVSAIRFVEDEKDEEDNETRTLLRRATPHPGELKHMKKTVENLRNDMNAAKGLDSNKNEVNHAIDRVTTSV [LRRC1],-0.0636,-0.136,-0.136,-0.881
MMPSRTNLATGIPSSKVKYSRLSSTDDGYIDLQFKKTPPKIPYKAIALATVLFLIGAFLIIIGSLLLSGYISKGGADRAVPVLIIGILVFLPGFYHLRIAYYASKGYRGYSYDDIPDFDD [TMEM230],0.0716,-0.0463,-1.72,-2.3
MAGAAEDARALFRAGVCAALEAWPALQIAVENGFGGVHSQEKAKWLGGAVEDYFMRNADLELDEVEDFLGELLTNEFDTVVEDGSLPQVSQQLQTMFHHFQRGDGAALREMASCITQRKCKVTATALKTARETDEDEDDVDSVEEMEVTATNDGAATDGVCPQPEPSDPDAQTIKEEDIVEDGWTIVRRKK [TSR2],0.00907,0.0427,-0.881,0.659
MNNKFDALKDDDSGDHDQNEENSTQKDGEKEKTERDKNQSSSKRKAVVPGPAEHPLQYNYTFWYSRRTPGRPTSSQSYEQNIKQIGTFASVEQFWRFYSHMVRPGDLTGHSDFHLFKEGIKPMWEDDANKNGGKWIIRLRKGLASRCWENLILAMLGEQFMVGEEICGAVVSVRFQEDIISIWNKTASDQATTARIRDTLRRVLNLPPNTIMEYKTHTDSIKMPGRLGPQRLLFQNLWKPRLNVP [EIF4E2],0.114,0.000807,-1.02,-0.941
MPSEGRCWETLKALRSSDKGRLCYYRDWLLRREDVLEECMSLPKLSSYSGWVVEHVLPHMQENQPLSETSPSSTSASALDQPSFVPKSPDASSAFSPASPATPNGTKGKDESQHTESMVLQSSRGIKVEGCVRMYELVHRMKGTEGLRLWQEEQERKVQALSEMASEQLKRFDEWKELKQHKEFQDLREVMEKSSREALGHQEKLKAEHRHRAKILNLKLREAEQQRVKQAEQERLRKEEGQIRLRALYALQEEMLQLSQQLDASEQHKALLKVDLAAFQTRGNQLCSLISGIIRASSESSYPTAESQAEAERALREMRDLLMNLGQEITRACEDKRRQDEEEAQVKLQEAQMQQGPEAHKEPPAPSQGPGGKQNEDLQVKVQDITMQWYQQLQDASMQCVLTFEGLTNSKDSQAKKIKMDLQKAATIPVSQISTIAGSKLKEIFDKIHSLLSGKPVQSGGRSVSVTLNPQGLDFVQYKLAEKFVKQGEEEVASHHEAAFPIAVVASGIWELHPRVGDLILAHLHKKCPYSVPFYPTFKEGMALEDYQRMLGYQVKDSKVEQQDNFLKRMSGMIRLYAAIIQLRWPYGNRQEIHPHGLNHGWRWLAQILNMEPLSDVTATLLFDFLEVCGNALMKQYQVQFWKMLILIKEDYFPRIEAITSSGQMGSFIRLKQFLEKCLQHKDIPVPKGFLTSSFWRS [GLE1],-0.966,0.773,0.568,0.433
MSFNLQSSKKLFIFLGKSLFSLLEAMIFALLPKPRKNVAGEIVLITGAGSGLGRLLALQFARLGSVLVLWDINKEGNEETCKMAREAGATRVHAYTCDCSQKEGVYRVADQVKKEVGDVSILINNAGIVTGKKFLDCPDELMEKSFDVNFKAHLWTYKAFLPAMIANDHGHLVCISSSAGLSGVNGLADYCASKFAAFGFAESVFVETFVQKQKGIKTTIVCPFFIKTGMFEGCTTGCPSLLPILEPKYAVEKIVEAILQEKMYLYMPKLLYFMMFLKSFLPLKTGLLIADYLGILHAMDGFVDQKKKL [SDR16C5],-0.478,-0.0428,0.864,-0.987
MLLPWATSAPGLAWGPLVLGLFGLLAASQPQAVPPYASENQTCRDQEKEYYEPQHRICCSRCPPGTYVSAKCSRIRDTVCATCAENSYNEHWNYLTICQLCRPCDPVMGLEEIAPCTSKRKTQCRCQPGMFCAAWALECTHCELLSDCPPGTEAELKDEVGKGNNHCVPCKAGHFQNTSSPSARCQPHTRCENQGLVEAAPGTAQSDTTCKNPLEPLPPEMSGTMLMLAVLLPLAFFLLLATVFSCIWKSHPSLCRKLGSLLKRRPQGEGPNPVAGSWEPPKAHPYFPDLVQPLLPISGDVSPVSTGLPAAPVLEAGVPQQQSPLDLTREPQLEPGEQSQVAHGTNGIHVTGGSMTITGNIYIYNGPVLGGPPGPGDLPATPEPPYPIPEEGDPGPPGLSTPHQEDGKAWHLAETEHCGATPSNRGPRNQFITHD [LTBR],-0.758,0.703,-2.45,-1.87
DENND4A,0.0407,-0.246,-0.12,-0.608
